Laboratory results taken from the nanobody polyreactivity screen of Harvey et al. (2022).

Assay: yeast display, Sf9 membrane polyspecificity reagent, FACS + sequencing; frameworks hold sequencing errors
How it was run: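 A synthetic nanobody library was expressed on Saccharomyces cerevisiae BJ5465 by galactose induction for 36–48 hours. The library was stained for 1 hour at 4 °C with 10% biotinylated, detergent-solubilized Sf9 membrane reagent and enriched with streptavidin microbeads before FACS. Low and high (top ~1%) gates were set on anti-HA fluorescence for expression and streptavidin fluorescence for reagent binding, and each polyreactivity label reflects the gate of origin.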

| Sequence | polyreactivity (PSR sort gate) |
| --- | --- |
| QVQLVESGGGLVQAGGSLRLSCAASGRTFRPYAMGLYRQEPGKERELVAAITSGGSTYYADSVKGRLTFSRDNAKYTVYLQMNSLKTEDTAVYYCNAKYYYQPPYDYWVQGTQVTVSS | low polyreactivity |
| QVQLVESGGGLVQAGGSLRLSCAASGRTFRPYAMGWYRQAPGKERELVAAITTTGRTYYADSVKGRFTISRDNAKNTVYLQMNSLKPEDTAVYDCNAVAYPSPHYWRYYYWGQGTQVTVSS | high polyreactivity |
| QVQLVESGGGLVQAGGSLRLSCAASGRTFRQYALGWYRQAPGKEWELVATISGGGGNTYYADSVKGRFTISRDNAKKTVYLQMNSLKPEDTAFYYCAARRRDRPVRGYDYWGQGTQVTVSS | high polyreactivity |
| QVQLVESGGGLVQAGGSLRLSCAASGRTFRQYAMGWSRQAPGKERELVAGITASGGSTSYADSVKGRFTISRDNAKNTVYLQMNSLKPEDTAVYYCAKLSYLYRYDYWGQGTQVTVSS | high polyreactivity |
| QVQLVESGGGLVQAGGSLRLSCAASGRTFRQYAMGWYRQAPGQETELVAAITWDGGSTYYADSVKGRFTISRDNAKNPVYLQMNSLKPEDTAVYYCAKLLGGTYYEYDYWGQGTQVTVSS | low polyreactivity |
| QVQLVESGGGLVQAGGSLRLSCAASGRTFRRNAMGWYRQAPGKERELVAAINSGGSTYYADSVKGRFTISRDNAKNTDYLQMNSLKPEDTAVYYCAASGSKYVQSYSRYDYWGQGTQVTVSS | high polyreactivity |
| QVQLVESGGGLVQAGGSLRLSCAASGRTFRRNAMGWYRQAPGKERELVAAISWRGVSTYYADSVKGRFTISRDNAKNTVYLQMNSLKPEDNALYYCAVDFPYTRRDYWGQGPQVTVSS | high polyreactivity |
| QVQLVESGGGLVQAGGSLRLSCAASGRTFRRNAMGWYRQAPGKEWELVAAISKSGGRTYYADSVKGRFTISRDNAKNTVYLQMNSLKPEDTAVYYCAARGYGYIPDNGDYDYWGQGTQVTVSS | high polyreactivity |
| QVQLVESGGGLVQAGGSLRLSCAASGRTFRRNTMGWYRQAPGKERELVAAISNRGTSTYYADSVKGRFTFSRDNAKNTVYLQMNSLKPEDTAVYYCAAREKYISYSYYYWGQGTQVTVSS | high polyreactivity |
| QVQLVESGGGLVQAGGSLRLSCAASGRTFRRNTMGWYRQATGKERAFVAAITFSGVRTYYADSVKGRFTISRDNAKNTVYLQMNSLKPEDTAVYYCANSRQYIGGFDYWGQGTQVTVSS | high polyreactivity |
| QVQLVESGGGLVQAGGSLRLSCAASGRTFRRYAMGWYRQAPGKEREFVAAIRYSGGITYYADSVKGRFTISRDNAKNTVYLQMNSLKPEDTAVFYCAAYGWGNRWYSRFDYWGQGTQVTVSS | high polyreactivity |
| QVQLVESGGGLVQAGGSLRLSCAASGRTFRRYAMGWYRQAPGKERELVAAISKSGGRTYYADSVKGRFTISRDNAKNTVYLQMNSLKPEDTAVYYCAADHIQTAGGDYWGQGTQVTVSS | high polyreactivity |
| QVQLVESGGGLVQAGGSLRLSCAASGRTFRRYAMGWYRQAPGKEREWVAAISRTGSTNNYADSVKGRFTISRDNAKKTVYLQLNSLKPEDTAVYDCNGQLILGYGYDYWGQGTQVTVSS | high polyreactivity |
| QVQLVESGGGLVQAGGSLRLSCAASGRTFRRYTMGWYRQAPGKEREFVAGITSSAGNTHYADSVKGRFTISRYNAKNTVYLQMNSLKPEDTAVYYCNAVYYHGSSQYYGGTYGRYYWGQGTQVTVSS | high polyreactivity |
| QVQLVESGGGLVQAGGSLRLSCAASGRTFRRYTMGWYRQAPGKERELVAAITSGGRTNYADSVKGRFTISRDNAKNTVYLQMNSLKPEDTAVYYCNAQNEIWRVTFSPFDRWGYDYWGQGTQVTVSS | low polyreactivity |
| QVQLVESGGGLVQAGGSLRLSCAASGRTFRRYTMGWYRQAPGKERELVATISSGGSTYADSVKGRFTISRDNAKNTVYLQMNSLKPEDTAVYYCAATAIYPSAWRMDYWGQGTQVTVSS | high polyreactivity |
| QVQLVESGGGLVQAGGSLRLSCAASGRTFRSDNALGWYRQPPGKERELVAAISQGGGTYYADSVKGRFTISRDNAKKTVYLQMNSLKPEDTAVYYCARDAYYADPSLWYYTYDYWGQGTQVTVSS | low polyreactivity |
